# Patent US20100015637A1 (AbbVie / Abbott, published 2010)
# T1: CHO human PlGF-1 fragment (comprising amino acids 17-131; ATCC PTA-8540) (human, UniProt P49763 35-221)
# T1 sequence: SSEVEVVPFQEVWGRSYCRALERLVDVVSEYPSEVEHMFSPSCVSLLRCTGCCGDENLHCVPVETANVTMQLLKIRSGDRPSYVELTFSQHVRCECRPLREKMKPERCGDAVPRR
# T2: CHO human PlGF-1 comprising amino acids 1-137 (human PlGF-1-His (1-131), CHO 6305) (human, UniProt P49763 19-221, N-glycans at N21 (completely glycosylated) and N89 (partially glycosylated))
# T2 construct: Mature human PlGF-1 with 6xHis tag (137 amino acids); also called CHO (1-137)
# T2 sequence: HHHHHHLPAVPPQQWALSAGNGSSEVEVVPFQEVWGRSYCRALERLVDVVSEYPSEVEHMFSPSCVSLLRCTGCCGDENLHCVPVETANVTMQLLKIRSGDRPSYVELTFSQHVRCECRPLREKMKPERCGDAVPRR
# T3: human PlGF-1 comprising amino acids 1-137 produced in human embryonic kidney cells (human, UniProt P49763 19-221)
# T3 construct: Mature human PlGF-1 with 6xHis tag; also called HEK (1-137); full length HEK human PlGF-1 (1-137)
# T3 sequence: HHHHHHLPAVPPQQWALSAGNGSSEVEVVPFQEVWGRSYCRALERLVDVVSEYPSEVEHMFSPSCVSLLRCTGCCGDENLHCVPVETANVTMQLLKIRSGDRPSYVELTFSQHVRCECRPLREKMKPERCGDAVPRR
# T4: human PlGF-1 fragment (comprising amino acids 17-131) produced in human embryonic kidney cells (human, UniProt P49763 35-221)
# T4 sequence: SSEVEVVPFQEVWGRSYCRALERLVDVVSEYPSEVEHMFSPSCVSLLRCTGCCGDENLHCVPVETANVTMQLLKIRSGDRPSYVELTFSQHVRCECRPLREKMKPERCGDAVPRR
# What was measured:
# [1] = molecular target: human PlGF-1 comprising amino acids 1-137 produced in human embryonic kidney cells (human) (UniProt P49763); assay: Format 2 …, capture MAb264, detection Pb264; sFlt-1 307 pmol/L (ratio 10)
# [2] = molecular target: human PlGF-1 comprising amino acids 1-137 produced in human embryonic kidney cells (human) (UniProt P49763); assay: Format 2 …, capture MAb264, detection Pb264; sFlt-1 1533 pmol/L (ratio 50)
# [3] = molecular target: human PlGF-1 comprising amino acids 1-137 produced in human embryonic kidney cells (human) (UniProt P49763); assay: Format 3 Quantikine ELISA, capture MAb264, detection Pb264; sFlt-1 613 pmol/L (ratio 20)
# [4] = molecular target: human PlGF-1 comprising amino acids 1-137 produced in human embryonic kidney cells (human) (UniProt P49763); assay: Format 3 Quantikine ELISA, capture MAb264, detection Pb264; sFlt-1 920 pmol/L (ratio 30)
# [5] = molecular target: recombinant human PlGF-1 (comprising amino acids 1-131) expressed in E. coli (R&D Systems) (human) (UniProt P49763); assay: … sandwich, capture MAb826, detection pAb264; antigen 1500 pg/mL
# [6] = molecular target: T1, CHO human PlGF-1 fragment (comprising …); assay: as above
# [7] = molecular target: T2, CHO human PlGF-1 comprising amino acids …; assay: as above
# [8] = molecular target: T3, human PlGF-1 comprising amino acids …; assay: as above
# [9] = molecular target: T4, human PlGF-1 fragment (comprising amino …); assay: as above
# [10] = molecular target: T1, CHO human PlGF-1 fragment (comprising …); assay: … sandwich, capture MAb826, detection pAb264; antigen 0 pg/mL (blank)
# [11] = molecular target: T2, CHO human PlGF-1 comprising amino acids …; assay: as above
# [12] = molecular target: T3, human PlGF-1 comprising amino acids …; assay: as above
# [13] = molecular target: T4, human PlGF-1 fragment (comprising amino …); assay: as above
# [14] = molecular target: recombinant human PlGF-1 (comprising amino acids 1-131) expressed in E. coli (R&D Systems) (human) (UniProt P49763); assay: … sandwich, capture MAb255, detection pAb264; antigen 15 pg/mL
# [15] = molecular target: recombinant human PlGF-1 (comprising amino acids 1-131) expressed in E. coli (R&D Systems) (human) (UniProt P49763); assay: … sandwich, capture MAb255, detection pAb264; antigen 1500 pg/mL
# [16] = molecular target: recombinant human PlGF-1 (comprising amino acids 1-131) expressed in E. coli (R&D Systems) (human) (UniProt P49763); assay: … sandwich, capture MAb255, detection pAb264; antigen 0 pg/mL (blank)
# [17] = molecular target: T1, CHO human PlGF-1 fragment (comprising …); assay: … sandwich, capture MAb255, detection pAb264; antigen 750 pg/mL
# [18] = molecular target: T2, CHO human PlGF-1 comprising amino acids …; assay: as above
# [19] = molecular target: T3, human PlGF-1 comprising amino acids …; assay: as above
# [20] = molecular target: T4, human PlGF-1 fragment (comprising amino …); assay: as above
molecule,measurement,setting,value
"native sFlt-1, isolated from human placental tissue (from UniProt P17948 27-687) (receptor)",% Inhibition,[1],81.8%
same,PlGF-1 Measured,[1],143 pg/mL
same,% Inhibition,[2],93.6%
same,PlGF-1 Measured,[2],50.4 pg/mL
same,% Inhibition,[3],40.4%
same,PlGF-1 Measured,[3],515 pg/mL
same,% Inhibition,[4],45%
same,PlGF-1 Measured,[4],476 pg/mL
"monoclonal antibody 2-826-335 (produced by murine hybridoma cell line 2-826-335, ATCC PTA-8539) (antibody, mouse IgG1, V domains shown, also called MAb826) VH: QVQLKQSGPGLVQPSQSLSITCTVSGFSLTTYGIHWVRQSPGKGLEWLGVMWSGGDTDYDAAFISRLSISKDNSKSQVFFKMNSLQANDTGIYYCARYRFYGMDYWGQGTSVTVSS VL: AIQMTQSSSSFSVSLGDRVTITCKASEDIYNRFAWYQQKPGNAPRLLISGAASLEAGVPSRFSGSGSGQDYTLSITSLQTEDVATYYCQQYWSTPWTFGGGTKLEIKR",RLU,[5],1.08e+06 RLU
same,RLU,[6],456000 RLU
same,RLU,[7],329000 RLU
same,RLU,[8],760000 RLU
same,RLU,[9],624000 RLU
same,RLU,[10],6680 RLU
same,RLU,[11],6600 RLU
same,RLU,[12],6530 RLU
same,RLU,[13],6590 RLU
"monoclonal antibody 1-255-713 (produced by murine hybridoma cell line 1-255-713, ATCC PTA-8536) (antibody, mouse IgG2a, V domains shown, also called MAb255) VH: QVHLQQSGAELMKPGASVKISCKATGYTFSSYWIEWVKQRPGHGLEWIGEILPGSVSNNFNEKFKDKATLTADPSSNTAYIQVSSLTSEDSAVYYCARSTGFYYGGNYFDHWGQGTTLAVSS VL: DVVMTQTPLSLPVSPGDQASISCRSSQSLVHSNGHTYLHWYLQKPGQSPKLLIYKVSNRFSGVPDRVSGSGSGTDFTLKISRVEAEDLGVYFCSQSTHVPPTFGGGTKLEIKR",RLU,[14],47200 RLU
same,RLU,[15],2.19e+06 RLU
same,RLU,[16],14300 RLU
same,RLU,[17],713000 RLU
same,RLU,[18],599000 RLU
same,RLU,[19],1.31e+06 RLU
same,RLU,[20],908000 RLU
